Reference: PMC11419001 (bioRxiv, 2024)

Biological target: ribosomal protein uS10 of the stalled 70S ribosome (E. coli, UniProt P0A7R5 1-103)
Assay: cryo-EM structure

binding result: binds
B1: HrpA (E. coli DExH-box RNA helicase), preparation for cryo-EM (enzyme)
chain: MTEQQKLTFTALQQRLDSLMLRDRLRFSRRLHGVKKVKNPDAQQAIFQEMAKEIDQAAGKVLLREAARPEITYPDNLPVSQKKQDILEAIRDHQVVIVAGETGSGKTTQLPKICMELGRGIKGLIGHTQPRRLAARTVANRIAEELKTEPGGCIGYKVRFSDHVSDNTMVKLMTDGILLAEIQQDRLLMQYDTIIIDEAHERSLNIDFLLGYLKELLPRRPDLKIIITSATIDPERFSRHFNNAPIIEVSGRTYPVEVRYRPIVEEADDTERDQLQAIFDAVDELSQESHGDILIFMSGEREIRDTADALNKLNLRHTEILPLYARLSNSEQNRVFQSHSGRRIVLATNVAETSLTVPGIKYVIDPGTARISRYSYRTKVQRLPIEPISQASANQRKGRCGRVSEGICIRLYSEDDFLSRPEFTDPEILRTNLASVILQMTALGLGDIAAFPFVEAPDKRNIQDGVRLLEELGAITTDEQASAYKLTPLGRQLSQLPVDPRLARMVLEAQKHGCVREAMIITSALSIQDPRERPMDKQQASDEKHRRFHDKESDFLAFVNLWNYLGEQQKALSSNAFRRLCRTDYLNYLRVREWQDIYTQLRQVVKELGIPVNSEPAEYREIHIALLTGLLSHIGMKDADKQEYTGARNARFSIFPGSGLFKKPPKWVMVAELVETSRLWGRIAARIDPEWVEPVAQHLIKRTYSEPHWERAQGAVMATEKVTVYGLPIVAARKVNYSQIDPALCRELFIRHALVEGDWQTRHAFFRENLKLRAEVEELEHKSRRRDILVDDETLFEFYDQRISHDVISARHFDSWWKKVSRETPDLLNFEKSMLIKEGAEKISKLDYPNFWHQGNLKLRLSYQFEPGADADGVTVHIPLPLLNQVEESGFEWQIPGLRRELVIALIKSLPKPVRRNFVPAPNYAEAFLGRVKPLELPLLDSLERELRRMTGVTVDREDWHWDQVPDHLKITFRVVDDKNKKLKEGRSLQDLKDALKGKVQETLSAVADDGIEQSGLHIWSFGQLPESYEQKRGNYKVKAWPALVDERDSVAIKLFDNPLEQKQAMWNGLRRLLLLNIPSPIKYLHEKLPNKAKLGLYFNPYGKVLELIDDCISCGVDKLIDANGGPVWTEEGFAALHEKVRAELNDTVVDIAKQVEQILTAVFNINKRLKGRVDMTMALGLSDIKAQMGGLVYRGFVTGNGFKRLGDTLRYLQAIEKRLEKLAVDPHRDRAQMLKVENVQQAWQQWINKLPPARREDEDVKEIRWMIEELRVSYFAQQLGTPYPISDKRILQAMEQISG
